Experimental findings from publication PMC2715281 (Nature structural & molecular biology, 2009) are described below.

Data set [1] addresses T1, MBP-RAG1 core WT;GST-RAG2 core (mouse (murine);mouse (murine), UniProt P15919;P21784 384-1008;1-383, |).
T1 sequence 1: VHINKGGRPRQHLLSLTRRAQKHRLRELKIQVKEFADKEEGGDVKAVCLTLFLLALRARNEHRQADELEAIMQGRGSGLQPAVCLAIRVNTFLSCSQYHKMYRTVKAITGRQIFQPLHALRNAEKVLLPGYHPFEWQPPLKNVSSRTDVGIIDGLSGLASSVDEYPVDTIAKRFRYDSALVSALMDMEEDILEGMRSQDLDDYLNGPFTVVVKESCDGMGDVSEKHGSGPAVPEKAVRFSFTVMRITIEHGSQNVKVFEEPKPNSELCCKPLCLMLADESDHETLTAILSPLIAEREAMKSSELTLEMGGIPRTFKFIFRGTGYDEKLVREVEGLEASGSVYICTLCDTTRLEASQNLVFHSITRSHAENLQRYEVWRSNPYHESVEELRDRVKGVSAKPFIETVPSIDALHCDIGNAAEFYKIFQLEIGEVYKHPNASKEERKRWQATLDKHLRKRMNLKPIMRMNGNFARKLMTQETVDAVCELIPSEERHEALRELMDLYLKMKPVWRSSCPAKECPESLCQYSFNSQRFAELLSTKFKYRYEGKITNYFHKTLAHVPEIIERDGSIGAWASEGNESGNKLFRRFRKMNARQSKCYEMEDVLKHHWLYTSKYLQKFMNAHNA
T1 sequence 2: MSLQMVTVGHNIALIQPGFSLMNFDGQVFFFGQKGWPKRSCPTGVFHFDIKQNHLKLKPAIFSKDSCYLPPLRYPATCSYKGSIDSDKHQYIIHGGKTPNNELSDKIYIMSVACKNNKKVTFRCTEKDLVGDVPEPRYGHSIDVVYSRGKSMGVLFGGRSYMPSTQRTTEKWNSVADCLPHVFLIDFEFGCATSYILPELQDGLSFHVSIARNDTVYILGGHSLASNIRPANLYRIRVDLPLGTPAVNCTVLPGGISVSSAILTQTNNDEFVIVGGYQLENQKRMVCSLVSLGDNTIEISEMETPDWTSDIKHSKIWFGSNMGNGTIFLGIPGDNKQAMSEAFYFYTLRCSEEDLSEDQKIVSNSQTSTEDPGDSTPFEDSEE
Nature of the data set: EMSA.

Data set [2] addresses MBP-RAG1 core WT;GST-RAG2 core;His-HMGB1 (mouse (murine);mouse (murine);human, UniProt P15919;P21784;P09429 384-1008;1-383;1-215, ||). Kind of data set: EMSA.
The data set “SEC + SEC-MALS” concerns the molecule itself. Kind of data set: SEC + SEC-MALS. Background: Size exclusion chromatography separates by hydrodynamic size, large species first.
Data set [3] concerns the target T2, RAG1 NBD (mouse (murine), UniProt P15919 389-464).
T2 sequence: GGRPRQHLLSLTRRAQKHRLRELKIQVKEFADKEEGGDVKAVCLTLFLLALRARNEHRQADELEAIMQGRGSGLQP
Nature of the data set: crystal structure.

In data set [4] the target is T2, RAG1 NBD. Nature of the data set: crystal structure. The source holds these as a separate data set.

Where two headings read alike, the source gives them in different places.

Chain of MBP-RAG1 core WT;GST-RAG2 core;His-HMGB1 (P09429 whole entry, one chain of several): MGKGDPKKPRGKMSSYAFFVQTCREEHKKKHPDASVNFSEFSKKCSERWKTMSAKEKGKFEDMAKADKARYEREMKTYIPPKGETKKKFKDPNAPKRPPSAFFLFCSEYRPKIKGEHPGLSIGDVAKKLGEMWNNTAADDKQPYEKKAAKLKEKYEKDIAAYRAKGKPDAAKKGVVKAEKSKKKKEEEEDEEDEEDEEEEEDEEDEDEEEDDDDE

B1: Consensus 12RSS (dsDNA)
DNA 1: GATCTGGCCTGTCTTACACAGTGATACAGACCTTAACAAAAACCTGCACTCGAGCGGAG
DNA 2: CTCCGCTCGAGTGCAGGTTTTTGTTAAGGTCTGTATCACTGTGTAAGACAGGCCAGATC
As for B1, in data set [1], the binding signal is 1 relative to WT. For the same molecule, the binding result in data set [2] was “binds”.

B2: His6-tagged RAG1 nonamer-binding domain (murine RAG1 residues 389-464) (domain or fragment, UniProt P15919 389-464, looked up)
chain: GGRPRQHLLSLTRRAQKHRLRELKIQVKEFADKEEGGDVKAVCLTLFLLALRARNEHRQADELEAIMQGRGSGLQP
A word on the stoichiometry N: it is the number of molecules, sites or subunits per partner or assembly. With B2, the “stoichiometry N” value in “SEC + SEC-MALS” was found to be 2.

B3: Native crystal 14-mer (nonamer plus 4 bp of 12RSS spacer) (dsDNA)
DNA 1: ACTTAACAAAAACC
DNA 2: TGGTTTTTGTTAAG
For the molecule B3, the binding result in the data set with RAG1 NBD [3] is “binds”.

B4: 56DNA crystal 14-mer (symmetrized) (dsDNA)
DNA 1: AGTTTTCAGAAACC
DNA 2: AGGTTTCTGAAAAC
As to B4, in the data set with RAG1 NBD [4], the binding result is on record as “binds”.
